Source: publication PMC3575853 (Nucleic Acids Research, 2013)

B1: RPA32 residues 43-171 (32D subunit of the human RPA DNA-binding core, RPA-DBC) (domain or fragment)
chain: AQHIVPCTISQLLSATLVDEVFRIGNVEISQVTIVGIIRHAEKAPTNIVYKIDDMTAAPMDVRQWVDTDDTSSENTVVPPETYVKVAGHLRSFQNKKSLVAFKIMPLEDMNEFTTHILEVINAHMVLSK

Legend:
[1] = target: RPA70 residues 181-616 (70ABC subunit of the human RPA DNA-binding core, RPA-DBC) (human, UniProt P27694 181-616); assay: SEC-MALS
[2] = target: RPA-DBC (RPA70ABC/32D/14 DNA-binding core) (human, UniProt P27694;P15927;P35244 181-616;43-171;1-121); assay: SANS / gel filtration
Sequence of RPA-DBC (RPA70ABC/32D/14 DNA-binding core) (P27694 181-616, chain 1 of 2): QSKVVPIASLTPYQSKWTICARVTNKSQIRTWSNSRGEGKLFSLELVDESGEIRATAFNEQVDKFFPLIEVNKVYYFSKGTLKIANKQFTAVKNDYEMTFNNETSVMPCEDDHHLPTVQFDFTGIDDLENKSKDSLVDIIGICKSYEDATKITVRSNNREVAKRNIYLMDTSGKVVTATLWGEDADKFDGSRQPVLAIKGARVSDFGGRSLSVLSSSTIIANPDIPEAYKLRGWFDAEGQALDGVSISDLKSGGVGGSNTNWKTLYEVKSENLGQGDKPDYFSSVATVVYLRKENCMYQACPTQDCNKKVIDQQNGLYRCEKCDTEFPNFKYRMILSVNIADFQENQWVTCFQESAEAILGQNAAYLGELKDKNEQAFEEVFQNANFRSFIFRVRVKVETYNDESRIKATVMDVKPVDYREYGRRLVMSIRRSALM
Sequence of RPA-DBC (RPA70ABC/32D/14 DNA-binding core) (P35244 whole entry, chain 3 of 2): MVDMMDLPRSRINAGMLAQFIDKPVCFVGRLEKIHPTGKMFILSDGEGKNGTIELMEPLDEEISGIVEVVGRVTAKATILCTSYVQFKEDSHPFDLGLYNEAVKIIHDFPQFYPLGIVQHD

Sequence of RPA70 residues 181-616 (70ABC subunit of the human RPA DNA-binding core, RPA-DBC) (P27694 181-616): as the sequence (P27694 181-616, chain 1 of 2) above

Binder | binding result [1] | binding result [2]
B1 | binds | –
TTTTTTTTTTTTTTTTTTTTTTTTTTTTTT (ssDNA) [dT30] | – | binds
